From the nanobody polyreactivity screen of Harvey et al. (2022)

Test: yeast display, Sf9 membrane polyspecificity reagent, FACS + sequencing; frameworks hold sequencing errors
Summary of the method: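 Sorting gates, low and high (top ~1%), were placed on anti-HA fluorescence to track expression and on streptavidin fluorescence to track reagent binding. A clone's polyreactivity label is taken from the gate it came out of. The reagent was 10% biotinylated, detergent-solubilized Sf9 membrane, applied for 1 hour at 4 °C to galactose-induced yeast display cells.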

Sequence	polyreactivity (PSR sort gate)
QVQLVESGGGLVQAGGSLRLSCAASGRTLSTNGMGWYRQAPGKERELVATITRRGGRTYYADSVKGRFTISRDNAKNTVYLQMNSLKPEDTAVYYCATEQADRRVTYNYWGQGTQVTVSS	high polyreactivity
QVQLVESGGGLVQAGGSLRLSCAASGRTLTIYAMGWYRQAPGKERELVATIRSSGSTNYADSVKGRFTISRDNAKNTVYLQMNSLKPEDTAVYYCSARGFYPTNVGKYNYWGQGTQVTVSS	high polyreactivity
QVQLVESGGGLVQAGGSLRLSCAASGRTLTLNAMGWYRQAPGKERELVAAISGSGGRTFYADSVKGRFTISRDNAKNTVYLQMNSLKPEDTAVYYCAADYFYLKWYEYWGQGTQVTVSS	high polyreactivity
QVQLVESGGGLVQAGGSLRLSCAASGRTLTRYTMGWYRQAPGKERELVATISRSGGNTHYADSLKGRFTISRDNAKNTVYFQMNSLKPEDTAVFYCNAVRYAIYGYDYWGQGTQVTVSS	high polyreactivity
QVQLVESGGGLVQAGGSLRLSCAASGRTLTYNVMGWYRQAPGKERELVASISSSGSSTHYADSVKGRFTISRDNAKNTVYLQMNSLKPEDTAVYYCAVEFWRPFWTRFDYWGQGTQVTVSS	high polyreactivity
QVQLVESGGGLVQAGGSLRLSCAASGRTLVSYAMGWYRQAPGKERELVATISWSGGSTYYADSVKGRFTISRDNAKNTVYLQMYSLKPEDTAVYYCNRSLTGYDELGYPVPYTYDYWGQATQVTVSS	low polyreactivity
QVQLVESGGGLVQAGGSLRLSCAASGRTLWVYAMGWYRQAPGKERELVAAITSSGVSTDYADSVKGRFTISRDNAKNTVYLQINSLKPEDTAVYYCAKRYWSRYAQYDYWGQGTQVTVSS	low polyreactivity
QVQLVESGGGLVQAGGSLRLSCAASGRTLWYYTMGWYRQAPGKERELVADITRGTSTNYADSVKGRFTISRDNAKNTVYLQMNSLKPEDTAVYSCNRAHGRSRYSRDYDSWGQGTQVTVSS	low polyreactivity
QVQLVESGGGLVQAGGSLRLSCAASGRTLYINAMGWYRQAPGKERELVAAIRRGGSTYADSVKGRFTISRDNAKNTVYLQMNSLKPEDTAVYYCAADVPRGKYKGDYWGQGTQVTVSS	high polyreactivity
QVQLVESGGGLVQAGGSLRLSCAASGRTLYLYAMGWYRQAPGKERELVAAITYGGGSTYYADSVKGRFTISRDNAKNTVYLQMNSLKPEDTAVYYCNAPGDGYLYDHTYDYWGQGTQVTVSS	low polyreactivity
QVQLVESGGGLVQAGGSLRLSCAASGRTLYLYAMGWYRQAPGKERELVAGITWSGGSTYYADSVKGRFTISRDNAKNTVYLQMNSLKPEDTAVYYCAAVSYPDYDYWGQGTQVTVSS	low polyreactivity
QVQLVESGGGLVQAGGSLRLSCAASGRTLYNYTMGWYRQAPGKERELVATINFSGGSTYYADSVKGRFTISRDNAKNTVYLQMNSLKPEDTAVYYCNARGYHYAYKGAYLGDDYWGQGTQVTVSS	low polyreactivity
QVQLVESGGGLVQAGGSLRLSCAASGRTLYRYAMGWYRQAPGKERELVAAIRSGGRTNYADSVKGRFTISRDNAKNTVYLLMNSLKPEDTAVYYCAARTLRYPSTYDYWGQGTQVSVSS	high polyreactivity
QVQLVESGGGLVQAGGSLRLSCAASGRTLYWYAMGWYRQAPGKEREFVAAITWRGGSTSYADSVKGRFTISRDNAKNTVYLQMNSLKPEDTAVYYCAASSFRSYYSGKYDYWGQGTQVTVSS	high polyreactivity
QVQLVESGGGLVQAGGSLRLSCAASGRTNKSNTLGWYRQEPGKQMELVAAISWRVGSTYYADSVKGRFTISRDNAKNTVYLQMNSLKPEDTAVYYCAARPWGYTVGSNYRYYLYGYWGLGTQVTVSS	high polyreactivity
QVQLVESGGGLVQAGGSLRLSCAASGRTSARYGMGWYRQAPGKERELVASIRRSGDSTYYADSVKGRFTISRDNAKNTVYLQLNSLKPEDTAVYYCAAGGKQGKRDYWGQGTQVTVSS	low polyreactivity
QVQLVESGGGLVQAGGSLRLSCAASGRTSFWNAMGWYRQAPGKERELVAAISASVGRTYYADSVKGRFTISRDNAKNTVYLQMNSLKPEDTAVYYCAKVYHAGTGYPSLGLDYWGQGTQVTVSS	low polyreactivity
QVQLVESGGGLVQAGGSLRLSCAASGRTSGFNTMGWYRQAPGKESELVAAISFSGGSTYYADSVKGRFTISRDNAKNTVYLHMNSLKPEDTAVYYCNALYRYLYRSGDYWGQGTQVTVSS	low polyreactivity
QVQLVESGGGLVQAGGSLRLSCAASGRTSGRYALGWYRQAPGKERELVAAITSSGGSTYYADSVKGRFTISRDTAKNTVYLQMNSLKPEDTAVYYCAAYFRGTGLDRSYKYDYWGQGTQVTVSS	high polyreactivity
QVQLVESGGGLVQAGGSLRLSCAASGRTSGVYAMGWYRQAPGKERELVAAITSDSTYYADSVKGRFTISRDNAKNTVYLQMNSLKPEDTAVYYCAADSLARRYDYWGQGTQVTVSS	low polyreactivity
QVQLVESGGGLVQAGGSLRLSCAASGRTSIWNSMGWYRQAPGKERELVASISWSGGSTYYADSVKGRFTISRDNAKNTVYLQMNSLKPEDTAVSYCAKTAYFLVFNEHLHNKRYDSWGQGTQVTVSS	low polyreactivity
QVQLVESGGGLVQAGGSLRLSCAASGRTSNIYAMGWYRQAPGKERELVAAIRTGGSTNYADSVKGRFTISRDNAKNSVYLQMNSLKPEDTAVYYCAATSRRSRPAEEYWGQGTQVTVSS	high polyreactivity

Sequence	polyreactivity (PSR sort gate)
QVQLVESGGGLVQAGGSLRLSCAASGRTSRNNVMGWYRQAPGKERELVAAITKRTDRTYYADSVKGRFTISRDNAKNTVYLQMNSLKPEDTAVYYCAADLSLSTGGRAFPTYGYWGQGTQVTVSS	high polyreactivity
QVQLVESGGGLVQAGGSLRLSCAASGRTSRQYAMGWYRQAPGKEREFVAAITWSDSGTYYADSVKGRFTISRDNAKNTVYLQMNSLKPEDTAVYYCAAERYLSFDRYLYEYYYWGQGTQVTVSS	low polyreactivity
QVQLVESGGGLVQAGGSLRLSCAASGRTSRVYAMGWYRQAPGTERELVAAITWRGGNTYYADSVKGRFTISRDHAKNTVYLQMNSMKPEDTAVYYCAADPWSYGSWHGDSWGQGTQVTVSS	high polyreactivity
QVQLVESGGGLVQAGGSLRLSCAASGRTSRYAMGWYRQAPGKERELVAAISRNGGTTSYADSVKGRFTISRDNAKNTVYLQMNSLKPEDTAVYYCNAYSAFVPPTRGYYWGQGTQVTVSS	high polyreactivity
QVQLVESGGGLVQAGGSLRLSCAASGRTSSIYTMGWYRQAPGKERELVAAINSGGRTYYADSVKGRFTISRDNAKNTVYLQMNSLKPEDTAVYYCAARRSTYYWGGVTYTYYWGQGTQVTVSS	high polyreactivity
QVQLVESGGGLVQAGGSLRLSCAASGRTSSSYAMGWSRQAPGKERELVASITSSGRTYYADSVKGRFTISRDNAKNTVYLQMNSLKPEDTAVYYCAAPFYRVRGWYARTPYGYWGQGTQVTVSS	high polyreactivity
QVQLVESGGGLVQAGGSLRLSCAASGRTSTRNAMGWYRQAPGKERELVAAITRSGGGTYYADSVKGRFTISRDNAKNTVYLQMNSLKPEDTAVYYCAADQRSPSDGYEYWGQGTQVTVSS	low polyreactivity
QVQLVESGGGLVQAGGSLRLSCAASGRTSVINAMGWYRQAPGKERELVATISRGGSTNYADSVKGRFTISRDNAKNTVYLQMNSLIPDDTAVYYCNADEQNESFIWSFTIIYDYWGQGTQVTVSS	low polyreactivity
QVQLVESGGGLVQAGGSLRLSCAASGRTSVIYAMGWYRKAPGKERELVASIRRGGSTSYADSVKGRFTISRDNAKNTVYLQMNSLKPEDTAVYYCAARKRSVYGTEYDYWGQGTQVTVSS	high polyreactivity
QVQLVESGGGLVQAGGSLRLSCAASGRTSVIYAMGWYRQAPGKERELVASIRRGGSTSYADSVKGRFTISRDNAKNTVYLQMNSLKPEDTAVYYCAARKRSVYGTEYDYWGQGTQVTVSS	high polyreactivity
QVQLVESGGGLVQAGGSLRLSCAASGRTSVWYTMGWYRQAPGKEREFVASITGSGTCYADSVKGRFTISRDNAKNTVYLQMNSLKPEDTAVYYCAAGGKYYTFGFRGGTYDYWGQGTQVTVSS	high polyreactivity
QVQLVESGGGLVQAGGSLRLSCAASGRTSVYNAMGWYRPAPGKERELVAAIRGGGGNTYYADSVKGRFTISRDNAKNTVYLQMNSLKPADTAVYYCAKGSVVYLLRGVKGHSMDYWGQGTQVTVSS	low polyreactivity
QVQLVESGGGLVQAGGSLRLSCAASGRTSVYNAMGWYRQAPGKERELVAAITYGGRTYYADSVKGRFTISRDNAKNTVYLQMNSLKPEDTAVYYCAAPFHPAYVGYDYWGQGTQVTVSS	low polyreactivity
QVQLVESGGGLVQAGGSLRLSCAASGRTSYGYAIGWYRQAPGKERELVAAITYGGGSTYYADSVKGRFTISRDNEKNTVYLQMNSLKPEDTAVYYCAADRTGSTLYTIRYYYWGQGTQVTVSS	low polyreactivity
QVQLVESGGGLVQAGGSLRLSCAASGRTSYSNAMGWYRQAPGKERELVAAISGSGVRTYYADSVKGRFTISRDNAKNTVYLQMNSLKPEDTAVYYCAAAGRYPALYGYWGQGTQVTVSS	high polyreactivity
QVQLVESGGGLVQAGGSLRLSCAASGRTSYTNAMGWYRQAPGKERELVAAINYSGGSTYYADSVKGRFTISRDNAKNTVYLQMNSLKPEDTAVSYCAAERYYWYTEMGYWGQGTQVTVSS	high polyreactivity
QVQLVESGGGLVQAGGSLRLSCAASGRTSYTNAMGWYRQAPGKERELVAAINYSGGSTYYADSVKGRFTISRDNAKNTVYLQMNSLKPEDTAVYYCAADWDWWYQEFDYWGQGTQVTVSS	high polyreactivity
QVQLVESGGGLVQAGGSLRLSCAASGRTYGFNVMGWYRQAPGKERELVAAISWSGGSTYYADSVKGRFTISRDNEKNTVYLQMNSLKPEDTAVYYCNKRYVHRYGYWGQGTQVTVSS	low polyreactivity
QVQLVESGGGLVQAGGSLRLSCAASGRTYGHDTMGWYRQAPGKERELVARISRTGSTKYADSVKGRFTISRDNAKNTVYLQMNCLTPEDTAVYYCARVQAGGYGERVYAYHFDYWGQGTQVTVSS	high polyreactivity
QVQLVESGGGLVQAGGSLRLSCAASGRTYGYAMGWYRQAPGKERELVARITWRGGSTSYADSVKGRFTISRDNAKNTVYLQMNSLKPEDTAVYYCAAGFYFPVYTYVRKRYYYWGQGTQVTVSS	high polyreactivity
QVQLVESGGGLVQAGGSLRLSCAASGRTYGYAMGWYRQAPGKERELVARITWRGGSTSYADSVKGRFTISRENAKNTVYLQMNSLKPEDTAVYYCAAGFNSSDWHYYYRGQGTQVTVSS	high polyreactivity
